In patent publication US20180016348A1 (Janssen / Centocor, published 2018):

B1: CR12041 (antibody, V domains shown)
VH: EVQLVQSGAEVKKPGASVKVSCKAAGYTFTNYYLHWVRQAPGQGLESMGIINPSSGGTIYAQKFQGRVTMTRDTSTSTVFMELSSLTSEDTAVYYCARAGEGKSRFGEGKLRYFYYGMDVWGQGTTVTVSS
VL: not shown
B2: CR12040 (antibody, V domains shown)
VH: QVQLVQSGAEVKKPGASVKVSCKASGYTFTNYYINWVRQAPGQGLEWMGRINPLHGGTGFAEKFQGRLTMTRDTSTSTVDMELSSLRSEDTAIYYCVKERDTTMATDYYGRSGCFDYWGQGTLVTVSS
VL: EIVLTQSPATLSLSPGERATLSCRASQSVRSYLAWYQQKPGQAPRLLIYDASNRATGIPARFSGSGSGTDFSLTISSLEPEDFAVYYCQQRSNWPITFGQGTRLEIK
B3: CR12042 (antibody, V domains shown)
VH: EVQLVESGAEVRKPGSSVKVSCTASGDTFSSYTITWVRQAPGQGLEWMGEIIPIFGTANYAQKFQGRVTLTADESTTTAYMDLSSLRSEDTAVYYCARGPDNHSDRYFYYGMDVWGQGTTVTVSS
VL: EIVLTQSPLSLPVTPGEPASISCRSSQSLLHSTGNNYLDWYLQKPGQSPQLLIYLGSNRASGVPDRFSGSGSGTDFTLKISRVEAEDVGVYYCMQALQTPRTFGQGTKVDIK
B4: CR12044 (antibody, V domains shown)
VH: EVQLVQSGSEVRKPGSTVKVSCKGSGGAFRTSVIHWVRQAPGQGLRWMGGIIPTLDTANHAQEFQGRATITADESTTTAYLELSSLRSEDSAVYYCATDYGGNSDRLGSYSFAFDVWGQGTTVTVSS
VL: not shown

Assays:
[1] = target: neuraminidase (NA) of H3N2 A/Hong Kong/1/1968 (influenza A virus H3N2 A/Hong …, UniProt Q91MA2 1-469); assay: flow cytometry on 293-F cells transfected with NA; '-: no binding'
[2] = target: human FcγRIIIa receptor (V158) (human, UniProt P08637 17-254); assay: cell-based or functional assay
[3] = target: T1, neuraminidase (NA) of H1N1 A/Mississippi/3/2001 (influenza A virus H1N1 …); assay: cell-based or functional assay
[4] = target: T2, neuraminidase (NA) of H1N1 A/New Caledonia/20/1999 (influenza A virus H1N1 A/New …); assay: cell-based or functional assay
[5] = target: T1, neuraminidase (NA) of H1N1 …; assay: cell-based or functional assay; remark: listed apart in the source
[6] = target: T2, neuraminidase (NA) of H1N1 A/New …; assay: cell-based or functional assay; remark: listed apart in the source
[7] = target: T3, neuraminidase (NA) of H1N1 A/Puerto Rico/8/1934 (influenza A virus H1N1 A/Puerto …, UniProt P03468 1-454); assay: flow cytometry on NA-transfected 293-F cells
T3 construct: whole, on cells

[8] = target: T4, neuraminidase (NA) of H3N2 A/Brisbane/10/2007 (influenza A virus H3N2 …); assay: cell-based or functional assay
[9] = target: T5, neuraminidase (NA) of H3N2 A/Wisconsin/67/2005 (influenza A virus H3N2 …); assay: cell-based or functional assay
[10] = target: T4, neuraminidase (NA) of H3N2 …; assay: cell-based or functional assay; remark: listed apart in the source
[11] = target: T5, neuraminidase (NA) of H3N2 …; assay: cell-based or functional assay; remark: listed apart in the source

T3 sequence (P03468 whole entry): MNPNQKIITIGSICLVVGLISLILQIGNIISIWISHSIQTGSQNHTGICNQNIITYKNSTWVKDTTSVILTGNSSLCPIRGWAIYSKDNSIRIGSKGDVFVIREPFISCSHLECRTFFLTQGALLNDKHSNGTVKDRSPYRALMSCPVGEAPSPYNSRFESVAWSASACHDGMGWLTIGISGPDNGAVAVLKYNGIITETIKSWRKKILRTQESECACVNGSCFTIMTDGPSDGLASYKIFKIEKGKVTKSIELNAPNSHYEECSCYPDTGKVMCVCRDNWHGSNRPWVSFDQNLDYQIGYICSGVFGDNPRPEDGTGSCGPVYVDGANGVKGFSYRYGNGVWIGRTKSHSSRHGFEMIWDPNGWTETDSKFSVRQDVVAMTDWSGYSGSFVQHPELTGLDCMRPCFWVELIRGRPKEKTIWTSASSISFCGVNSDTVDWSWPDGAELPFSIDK
Chain of neuraminidase (NA) of H3N2 A/Hong Kong/1/1968 (Q91MA2 whole entry): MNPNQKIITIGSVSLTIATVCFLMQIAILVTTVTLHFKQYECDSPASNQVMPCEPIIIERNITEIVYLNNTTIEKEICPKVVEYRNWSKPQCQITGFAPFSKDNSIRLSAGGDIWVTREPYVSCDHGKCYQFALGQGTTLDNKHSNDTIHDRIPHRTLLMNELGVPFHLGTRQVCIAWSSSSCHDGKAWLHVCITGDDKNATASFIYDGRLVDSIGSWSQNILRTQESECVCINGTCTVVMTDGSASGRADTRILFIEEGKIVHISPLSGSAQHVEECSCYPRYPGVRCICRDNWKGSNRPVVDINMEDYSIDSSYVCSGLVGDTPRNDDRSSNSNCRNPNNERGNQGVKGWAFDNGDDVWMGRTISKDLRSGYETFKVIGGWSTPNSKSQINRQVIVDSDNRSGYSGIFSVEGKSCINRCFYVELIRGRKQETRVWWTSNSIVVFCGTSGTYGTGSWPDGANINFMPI
Chain of human FcγRIIIa receptor (V158) (P08637 17-254 F176V limits assumed): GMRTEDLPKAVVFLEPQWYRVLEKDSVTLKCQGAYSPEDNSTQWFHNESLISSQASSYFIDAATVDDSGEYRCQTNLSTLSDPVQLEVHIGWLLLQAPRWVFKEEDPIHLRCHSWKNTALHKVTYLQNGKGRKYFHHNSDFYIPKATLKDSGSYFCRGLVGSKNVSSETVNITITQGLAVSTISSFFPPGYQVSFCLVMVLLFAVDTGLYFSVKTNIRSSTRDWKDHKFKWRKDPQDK

Row | Binder | binding result [1] | ADCC reporter D/A ratio; A549 targets infected with H1N1 A/Brisbane/59/2007 [2] | ADCC reporter D/A ratio; A549 targets infected with H1N1 A/Mississippi/03/2001 [2] | ADCC reporter D/A ratio; A549 targets infected with H1N1 A/New Caledonia/20/1999 [2] | ADCC reporter D/A ratio; A549 targets infected with H5N1 A/Hong Kong/156/1997 [2] | ADCC reporter EC50; A549 targets infected with H1N1 A/Brisbane/59/2007 [2] [µg/mL] | ADCC reporter EC50; A549 targets infected with H1N1 A/Mississippi/03/2001 [2] [µg/mL] | ADCC reporter EC50; A549 targets infected with H1N1 A/New Caledonia/20/1999 [2] [µg/mL] | ADCC reporter EC50; A549 targets infected with H5N1 A/Hong Kong/156/1997 [2] [µg/mL] | EC50 of neuraminidase inhibition (NA-XTD assay, whole virus) [3] [µg/mL] | EC50 of neuraminidase inhibition (NA-XTD assay, whole virus) [4] [µg/mL] | IC50 of virus neutralization (VNA on MDCK cells) [5] [µg/mL] | IC50 of virus neutralization (VNA on MDCK cells) [6] [µg/mL] | binding result [7] | EC50 of neuraminidase inhibition (NA-XTD assay, whole virus; one experiment) [8] [µg/mL] | EC50 of neuraminidase inhibition (NA-XTD assay, whole virus; one experiment) [9] [µg/mL] | IC50 of virus neutralization (VNA on MDCK cells; one experiment) [10] [µg/mL] | IC50 of virus neutralization (VNA on MDCK cells; one experiment) [11] [µg/mL]
1 | B1 | no binding (tested: 0.5 µg/ml) | 2.15 | 8.38 | 4.08 | 5.48 | 1.97 | 0.58 | 1.61 | 1.09 | > 100 | > 100 | 0.59 | 0.74 | – | – | – | – | –
2 | B2 | no binding (tested: 5 µg/ml) | 2.73 | 9.26 | 3.19 | 3.1 | 3.83 | 0.06 | 0.07 | 1.22 | > 100 | > 100 | > 50 | > 50 | binds | – | – | – | –
3 | B3 | no binding (tested: 5 µg/ml) | 6.11 | 17.4 | 17.7 | 6.87 | 0.08 | 0.14 | 0.28 | 0.01 | 0.12 | 0.18 | 0.2 | 0.2 | binds | 4.8 | 1.87 | > 100 | > 100
4 | B4 | no binding (tested: 5 µg/ml) | 6.49 | 20.2 | 17.5 | 2.37 | 0.28 | 5.19 | 0.93 | 11.6 | 0.96 | 0.17 | 0.37 | 0.13 | binds | – | – | – | –
